Here are results for five substances from patent US5914109.

As usually defined, the pKd is −log10 of the Kd, conventionally taken in molar units.

For assay [1], the target named is gp41 of HIVMN (virus) (HIV-1 strain MN).
Assay [2] deals with gp120 of HIVMN (HIV-1 strain MN) (UniProt P05877).
The target in assay [3] is 20-mer V3 peptide of HIVSF2 (HIV-1 isolate SF-2). Kind of assay: competition ELISA in solution at equilibrium (Friguet method). In general terms: An ELISA detects its analyte on a solid surface through an enzyme-linked reagent.
Assay [4] deals with recombinant gp120 protein of HIVSF2 (produced in CHO cells) (HIV-1 isolate SF-2) (UniProt P03378). Described as above.
For assay [5], the target named is gp120 of HIVMN (HIV-1 strain MN) (UniProt P05877). This is another data set of the same source.
Assay [6] has as its target 20-mer V3 peptide of HIVMN (American Bio-Technologies) (HIV-1 strain MN). In words: Friguet ELISA method, V3 MN peptide.
Assay [7] concerns the target hexapeptide KRIHIG (pin 7) (HIV-1 strain MN). Kind of assay: pin ELISA, hexapeptide on plastic pin.
Assay [8] deals with hexapeptide IHIGPG (pin 9) (HIV-1 strain MN). In words: pin ELISA, hexapeptide on plastic pin.
The target in assay [9] is hexapeptide YNKRKR (pin 3) (HIV-1 strain MN). In words: pin ELISA, hexapeptide on plastic pin.
In assay [10] the target is hexapeptide FYTTKN (pin 17) (HIV-1 strain MN). In words: pin ELISA, hexapeptide on plastic pin.
In assay [11] the target is hexapeptide RKRIHI (pin 6) (HIV-1 strain MN). In words: pin ELISA, hexapeptide on plastic pin.
The target of assay [12] is hexapeptide RIHIGP (pin 8) (HIV-1 strain MN). Kind of assay: pin ELISA, hexapeptide on plastic pin.
In assay [13] the target is hexapeptide PGRAFY (pin 13) (HIV-1 strain MN). In words: pin ELISA, hexapeptide on plastic pin.
Assay [14] has as its target hexapeptide RAFYTT (pin 15) (HIV-1 strain MN). Kind of assay: pin ELISA, hexapeptide on plastic pin.
Assay [15] concerns the target hexapeptide GPGRAF (pin 12) (HIV-1 strain MN). Kind of assay: pin ELISA, hexapeptide on plastic pin.
Assay [16] has as its target hexapeptide TTKNII (pin 19) (HIV-1 strain MN). In words: pin ELISA, hexapeptide on plastic pin.
Assay [17] has as its target hexapeptide IGPGRA (pin 11) (HIV-1 strain MN). Kind of assay: pin ELISA, hexapeptide on plastic pin.
In assay [18] the target is hexapeptide TKNIIG (pin 20) (HIV-1 strain MN). In words: pin ELISA, hexapeptide on plastic pin.
The target of assay [19] is hexapeptide YTTKNI (pin 18) (HIV-1 strain MN). In words: pin ELISA, hexapeptide on plastic pin.
Assay [20] deals with hexapeptide AFYTTK (pin 16) (HIV-1 strain MN). Kind of assay: pin ELISA, hexapeptide on plastic pin.
Assay [21] addresses hexapeptide HIGPGR (pin 10) (HIV-1 strain MN). In words: pin ELISA, hexapeptide on plastic pin.
Assay [22] concerns the target hexapeptide KRKRIH (pin 5) (HIV-1 strain MN). In words: pin ELISA, hexapeptide on plastic pin.
The target of assay [23] is hexapeptide GRAFYT (pin 14) (HIV-1 strain MN). Kind of assay: pin ELISA, hexapeptide on plastic pin.
In assay [24] the target is hexapeptide NKRKRI (pin 4) (HIV-1 strain MN). In words: pin ELISA, hexapeptide on plastic pin.
Assay [25] has as its target 20-mer V3 peptide of HIVSF2 (HIV-1 isolate SF-2). Kind of assay: competition ELISA in solution at equilibrium (Friguet method). The source holds these as a separate data set.
The target of assay [26] is 20-mer V3 peptide of HIVMN (American Bio-Technologies) (HIV-1 strain MN). The assay is described as above.
The target in assay [27] is recombinant gp120 protein of HIVSF2 (produced in CHO cells) (HIV-1 isolate SF-2) (UniProt P03378). Kind of assay: Friguet method; reference: the 20-mer SF-2 peptide.
The target of assay [28] is gp120 of HIV-1 isolate WMJ-2 (HIV-1 isolate WMJ-2).
The target of assay [29] is gp120 of HTLV-IIIB (HIV-1 isolate IIIB).
Assay [30] has as its target gp120 of HIVMN (HIV-1 strain MN) (UniProt P05877). The source holds these as a separate data set.
The target of assay [31] is gp120 of HIV-1 isolate RF (HIV-1 isolate RF) (UniProt P04579).
Assay [32] deals with gp120 of HIV-1 isolate AL-1 (HIV-1 isolate AL-1).
Assay [33] addresses gp120 of HIV-1 isolate SF-2 (virus) (HIV-1 isolate SF-2) (UniProt P03378).
The target in assay [34] is 20-mer V3 peptide of HIVSF2 (HIV-1 isolate SF-2). Kind of assay: competition ELISA in solution (Friguet method); reference: the MN peptide.
In assay [35] the target is V3-NY5 peptide (HIV-1 isolate NY5). Kind of assay: ELISA on V3 peptide coated plates, mAb at 10 µg/ml.
Assay [36] concerns the target V3-CDC4 peptide (HIV-1 isolate CDC4). Kind of assay: ELISA on V3 peptide coated plates, mAb at 10 µg/ml.
Assay [37] concerns the target V3-WM52 peptide (HIV-1 isolate WM52). In words: ELISA on V3 peptide coated plates, mAb at 10 µg/ml.
For assay [38], the target named is 23-mer peptide of the gp120 V3 loop of the MN strain of HIV-1 (HIV-1 strain MN). Kind of assay: ELISA on V3 peptide coated plates, mAb at 10 µg/ml.
Assay [39] concerns the target 20-mer V3 peptide of HIVSF2 (HIV-1 isolate SF-2). Kind of assay: ELISA on V3 peptide coated plates, mAb at 10 µg/ml.
The target in assay [40] is V3-SC peptide (HIV-1 isolate SC). In words: ELISA on V3 peptide coated plates, mAb at 10 µg/ml.
Assay [41] has as its target 22-mer V3 peptide of HXB2 (HIV-1 HXB2 (IIIB)). Kind of assay: competition ELISA in solution at equilibrium (Friguet method).

pKd: −log10 of the molar value. Read-outs that look alike come from different tables or passages of the source. A value given as a limit tells only on which side of the number the result lay.

On to human mAb 50-69 (antibody), for which, in assay [1], the neutralizing antibody titer (50%), MT-2 plaque assay, 1 hr, no complement (titer (1:x dilution)) turned out to be 3 and the neutralizing antibody titer (50%), MT-2 plaque assay, 18 hr with human complement (titer (1:x dilution)) was 3.
With human mAb 257-D (antibody), the 50% neutralization, CEM-SS syncytium-forming assay, IgG concentration in assay [2] came to 0.01 µg/mL. Moreover, the 90% neutralization, CEM-SS syncytium-forming assay, IgG concentration in assay [2] was determined as 0.88 µg/mL. In addition, the pKd in assay [3] was 6.20; in assay [4] it was 7.38; in [6], 6.64; in assay [25], 6.66; in assay [26] it was 6.64. The neutralizing antibody titer (50%), MT-2 plaque assay, 1 hr, no complement in assay [5] came to 3 ng/mL. In assay [5], this substance gave a neutralizing antibody titer (50%), MT-2 plaque assay, 18 hr with human complement of 0.3 ng/mL. The ELISA reactivity (absorbance units) (absorbance units) turned out to be 1.59 in assay [7]; 0.13 in assay [8]; 0.256 in assay [9]; 0.273 in [10]; 1.78 in assay [11]; 0.276 in [12]. Besides, the ELISA reactivity (absorbance units) (absorbance units) was found to be 0.456 in assay [13]; 0.333 in assay [14]; 0.208 in [15]; 0.219 in [16]; 0.163 in assay [17]; 0.164 in [18]. Besides, the ELISA reactivity (absorbance units) (absorbance units) in assay [19] came to 0.259; in assay [20], 0.233; in assay [21], 0.156; in assay [22], 0.259; in assay [23], 0.272; in assay [24], 0.288. Further, the Difference (Kd of the SF-2 peptide against SF-2 recombinant) in [27] was 15 fold.
In assay [2], human mAb 268-D (antibody) came in with a 50% neutralization, CEM-SS syncytium-forming assay, IgG concentration of 0.1 µg/mL. Also, the 90% neutralization, CEM-SS syncytium-forming assay, IgG concentration in [2] came to 1 µg/mL. In addition, the neutralizing antibody titer (50%), MT-2 plaque assay, 1 hr, no complement in [5] was determined as 23 ng/mL. For the same substance, the neutralizing antibody titer (50%), MT-2 plaque assay, 18 hr with human complement in assay [5] was 1.1 ng/mL. Also, the values for the pKd in [6], in [25] and in assay [26] were 6.23, 5.64 and 6.23, respectively. Besides, the ELISA reactivity (absorbance units) (absorbance units) in assay [7] turned out to be 0.179; in assay [8], 0.132; in [9], 0.243; in assay [10], 0.274; in assay [11], 0.252; in [12] it was 0.135. In addition, the ELISA reactivity (absorbance units) (absorbance units) in [13] came to 0.346; in [14], 0.35; in [15], 0.132; in assay [16] it was 0.212; in assay [17] it was 0.164; in assay [18], 0.141. Besides, the ELISA reactivity (absorbance units) (absorbance units) was 0.259 in assay [19]; 0.222 in assay [20]; 1.01 in [21]; 0.239 in assay [22]; 0.288 in assay [23]; 0.283 in assay [24].
In assay [2], human mAb 412-D (antibody) registered a 50% neutralization, CEM-SS syncytium-forming assay, IgG concentration of 4.69 µg/mL and a 90% neutralization, CEM-SS syncytium-forming assay, IgG concentration of over 10 µg/mL. The pKd in assay [6] is 5.04. The pKd in assay [26] was 5.04.
In [2], human mAb 537-D (antibody) yielded a 50% neutralization, CEM-SS syncytium-forming assay, IgG concentration of 2.69 µg/mL. The 90% neutralization, CEM-SS syncytium-forming assay, IgG concentration in assay [2] was over 10 µg/mL. Further, the pKd is 5.89 in assay [6], 5.07 in assay [25], under 4.00 in assay [41] and 5.89 in assay [26]. The neutralization endpoint, MT-4 cell killing assay in assay [28] is over 50 µg/mL; in assay [29], over 50 µg/mL; in [30] it was 6.25 µg/mL; in assay [31], over 50 µg/mL; in assay [32], 3.13 µg/mL; in assay [33], over 5 µg/mL. In addition, the fold difference of Kd between the two V3 peptides (MN and SF-2) in assay [34] was 7 fold. In addition, the minimum antigen concentration giving positive results (µg/ml of V3 peptide used to coat) in assay [35] was 0.8; in [36], 1; in assay [37], 2; in [38], 0.6; in assay [39], 1; in assay [40], 1.
